Assay results from IntAct's records for PubMed 22037600.

B1: Endoribonuclease ZC3H12A (Mus musculus), Q5D1E7 (parent)
chain: MSDPCGTKPVQESNPTMSLWSLEDRHSSQGRPQPDQDPVAKEAPTSELQMKVDFFRKLGYSSSEIHSVLQKLGVQADTNTVLGELVKHGSATERECQALTAPSPQPPLVPRGGSTPKPSTLEPSLPEEDREGSDLRPVVIDGSNVAMSHGNKEVFSCRGILLAVNWFLERGHTDITVFVPSWRKEQPRPDVPITDQHILRELEKKKILVFTPSRRVGGKRVVCYDDRFIVKLAFESDGVVVSNDTYRDLQGERQEWKRFIEERLLMYSFVNDKFMPPDDPLGRHGPSLDNFLRKKPLPSEHRKQPCPYGKKCTYGIKCRFFHPERPSRPQRSVADELRANALLSPPRTPVKDKSSQRPSPASQSSSVSLEAEPGSLDGKKLGARSSPGPHREGSPQTCAPAGRSLPVSGGSFGPTEWLAHTQDSLPYTSQECLDSGIGSLESQMSELWGVRGGSPGESGPTRGPYAGYHSYGSKVPAAPSFSPFRPAMGAGHFSVPTDYVPPPPTYPSREYWSEPYPLPPPTPVLQEPQRPSPGAGGGPWGRVGDLAKERAGVYTKLCGVFPPHLVEAVMRRFPQLLDPQQLAAEILSYKSQHLSE
partner: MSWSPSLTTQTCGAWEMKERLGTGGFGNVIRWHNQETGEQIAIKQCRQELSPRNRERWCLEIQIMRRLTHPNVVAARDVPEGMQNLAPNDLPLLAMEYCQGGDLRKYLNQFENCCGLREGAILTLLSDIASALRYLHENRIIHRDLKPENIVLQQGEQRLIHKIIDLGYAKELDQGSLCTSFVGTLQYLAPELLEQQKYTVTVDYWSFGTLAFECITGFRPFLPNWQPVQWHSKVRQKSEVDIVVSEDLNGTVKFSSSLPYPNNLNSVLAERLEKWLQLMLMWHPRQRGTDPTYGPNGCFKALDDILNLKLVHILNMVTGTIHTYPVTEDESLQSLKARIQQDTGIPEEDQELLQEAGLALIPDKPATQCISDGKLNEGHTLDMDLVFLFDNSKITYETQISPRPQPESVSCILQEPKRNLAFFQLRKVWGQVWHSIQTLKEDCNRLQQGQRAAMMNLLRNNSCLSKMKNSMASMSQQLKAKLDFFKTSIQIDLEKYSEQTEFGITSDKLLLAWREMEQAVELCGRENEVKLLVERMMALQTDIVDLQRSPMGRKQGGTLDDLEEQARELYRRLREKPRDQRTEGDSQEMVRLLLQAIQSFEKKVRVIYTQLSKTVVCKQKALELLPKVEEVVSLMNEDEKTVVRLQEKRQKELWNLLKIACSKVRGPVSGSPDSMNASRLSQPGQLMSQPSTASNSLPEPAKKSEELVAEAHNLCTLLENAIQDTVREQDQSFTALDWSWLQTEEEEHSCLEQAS

Variants of: B1
Settings: with ikkb_human IKBKB

Effect of a mutation on the interaction, decreasing interaction:
MSDPCGTKPVQESNPTMSLWSLEDRHSSQGRPQPDQDPVAKEAPTSELQMKVDFFRKLGYSSSEIHSVLQKLGVQADTNTVLGELVKHGSATERECQALTAPSPQPPLVPRGGSTPKPSTLEPSLPEEDREGSDLRPVVIDGSNVAMSHGNKEVFSCRGILLAVNWFLERGHTDITVFVPSWRKEQPRPDVPITDQHILRELEKKKILVFTPSRRVGGKRVVCYDDRFIVKLAFESDGVVVSNDTYRDLQGERQEWKRFIEERLLMYSFVNDKFMPPDDPLGRHGPSLDNFLRKKPLPSEHRKQPCPYGKKCTYGIKCRFFHPERPSRPQRSVADELRANALLSPPRTPVKDKSSQRPSPASQSSSVSLEAEPGSLDGKKLGARSSPGPHREGSPQTCAPAGRSLPVSGGSFGPTEWLAHTQDSLPYTSQECLDSGIGALESQMSELWGVRGGSPGESGPTRGPYAGYHSYGSKVPAAPSFSPFRPAMGAGHFSVPTDYVPPPPTYPSREYWSEPYPLPPPTPVLQEPQRPSPGAGGGPWGRVGDLAKERAGVYTKLCGVFPPHLVEAVMRRFPQLLDPQQLAAEILSYKSQHLSE [S439A]
MSDPCGTKPVQESNPTMSLWSLEDRHSSQGRPQPDQDPVAKEAPTSELQMKVDFFRKLGYSSSEIHSVLQKLGVQADTNTVLGELVKHGSATERECQALTAPSPQPPLVPRGGSTPKPSTLEPSLPEEDREGSDLRPVVIDGSNVAMSHGNKEVFSCRGILLAVNWFLERGHTDITVFVPSWRKEQPRPDVPITDQHILRELEKKKILVFTPSRRVGGKRVVCYDDRFIVKLAFESDGVVVSNDTYRDLQGERQEWKRFIEERLLMYSFVNDKFMPPDDPLGRHGPSLDNFLRKKPLPSEHRKQPCPYGKKCTYGIKCRFFHPERPSRPQRSVADELRANALLSPPRTPVKDKSSQRPSPASQSSSVSLEAEPGSLDGKKLGARSSPGPHREGSPQTCAPAGRSLPVSGGSFGPTEWLAHTQDSLPYTSQECLDAGIGALESQMSELWGVRGGSPGESGPTRGPYAGYHSYGSKVPAAPSFSPFRPAMGAGHFSVPTDYVPPPPTYPSREYWSEPYPLPPPTPVLQEPQRPSPGAGGGPWGRVGDLAKERAGVYTKLCGVFPPHLVEAVMRRFPQLLDPQQLAAEILSYKSQHLSE [S435A;S439A]
MSDPCGTKPVQESNPTMSLWSLEDRHSSQGRPQPDQDPVAKEAPTSELQMKVDFFRKLGYSSSEIHSVLQKLGVQADTNTVLGELVKHGSATERECQALTAPSPQPPLVPRGGSTPKPSTLEPSLPEEDREGSDLRPVVIDGSNVAMSHGNKEVFSCRGILLAVNWFLERGHTDITVFVPSWRKEQPRPDVPITDQHILRELEKKKILVFTPSRRVGGKRVVCYDDRFIVKLAFESDGVVVSNDTYRDLQGERQEWKRFIEERLLMYSFVNDKFMPPDDPLGRHGPSLDNFLRKKPLPSEHRKQPCPYGKKCTYGIKCRFFHPERPSRPQRSVADELRANALLSPPRTPVKDKSSQRPSPASQSSSVSLEAEPGSLDGKKLGARSSPGPHREGSPQTCAPAGRSLPVSGGSFGPTEWLAHTQDSLPYTSQECLDAGIGSLESQMSELWGVRGGSPGESGPTRGPYAGYHSYGSKVPAAPSFSPFRPAMGAGHFSVPTDYVPPPPTYPSREYWSEPYPLPPPTPVLQEPQRPSPGAGGGPWGRVGDLAKERAGVYTKLCGVFPPHLVEAVMRRFPQLLDPQQLAAEILSYKSQHLSE [S435A]
